Results taken from patent publication US20220073883A1, “COMPOSITIONS AND METHODS FOR GENERATION OF HEART FIELD-SPECIFIC PROGENITOR CELLS” (The Johns Hopkins University, priority 2018, published 2022).
Entries after “also recorded” stand apart in the source; their conditions may differ.

How the values were obtained:
Type in all cases: cell-based, mouse
canonical Wnt activity = assay: Topflash luciferase assay; settings: in combination with Bmp4 (1.25 ng/ml); 88 h of differentiation
Description: To test this, canonical Wnt activity was measured with its readout Topflash.
For Tbx1 and Tbx5 knockdown experiments, Tbx1 and Tbx5 ON-TARGETplus SMARTpool siRNA or scrambled siRNA (Dharmacon/Thermo Fisher Scientic) was used at 5 nM for cell transfection. Cells were transfected with Lipofectamine LTX (Life Technologies) in single-cell suspensions. For TOP-flash luciferase assays, mESCs were transfected with Topflash constructs and Renilla constructs and analyzed as previously described 5.

[1] = test system: ESC-derived cardiac spheroids; assay: qPCR of FHF (tbx5, hcn4) and SHF (tbx1, fgf10) markers in treated spheroids; settings: in combination with Bmp4 (1.25 ng/ml), Wnts 100 ng/ml, dorsomorphin, K2288, DMH1 100 nM; for expression of SHF markers (tbx1, fgf10): IWP-2 0.5 μM
Description: To investigate the crosstalk between Bmp and Wnt signals, the spheroids were treated with Bmp4 and Wnts in combinations and analyzed expression levels of FHF (tbx5, hcn4) and SHF (tbx1, fgf10) markers.
(§1) Mouse ESCs and human iPSCs were maintained and differentiated as previously described^5, 43, 68 Briefly, mESCs were maintained on gelatin-coated dishes in maintenance medium (Glasgow minimum essential medium supplemented with 10% fetal bovine serum and […] Chir99021 and 1 μM PD98059 or 1000 U/ml ESGRO (Millipore, Billerica, Mass.), Glutamax, sodium pyruvate, MEM non-essential amino acids (Thermo Fisher Scientific). For spheroid formation and differentiation, mouse ESCs were plated in IMDM/Ham's F12 (Cellgro) (3:1) supplemented with N2, B27, penicillin/streptomycin, 2 mM GlutaMAX, 0.05% BSA, 5 ng/ml L-ascorbic acid (Sigma-Aldrich) and α-monothioglycerol (MTG; Sigma-Aldrich) at a final density of 100,000 cells/ml to allow spheroid formation. After 48 h spheroids were collected and transferred to ultra-low attachment plastic surface and induced for 40 hours with Activin A, Bmp4, Wnt3A, Wnt5A, Wnt11 (R&D Systems) alone or in combination. Human iPSCs were maintained in Geltrex-coated T25 flasks using Essential 8 medium. For spheroid formation and differentiation, hiPSCs were plated in RPMI plus B27 minus insulin with Bmp4 and CHIR99021 and incubated for 48 h. After 48 h media was changed to RPMI plus B27 minus insulin. The hiPSC line used in this study was developed by Dr. Linzhao Cheng, the Johns Hopkins University, and had was generated from a de-identified patient using an approved IRB protocol.
RNA isolation was performed using either RNeasy Micro Kit (Cat #74004, Qiagen) or […]® PicoPure® RNA Isolation Kit following the manufacturer's instructions, and cDNA was generated using the high-capacity cDNA reverse transcription kit (Applied Biosystems). qPCR reactions were performed using the Taqman (Applied Biosystems) or Sybr Select qPCR mix (Thermo Fisher) with indicated primers. Gene expression levels were normalized to Gapdh. For the clonal cell-fate analysis, single Isl1-Cre RFP+, Cxcr4− and Isl1-Cre RFP^+, Cxcr4^+ cells were sorted at day 5.5 into 384-well plates and allowed to grow and differentiate for 7 days. […] RNA was isolated from 24 wells with colonies from Cxcr4− and Cxcr4+ sorted cells, respectively. Ct values<30 were considered positive. All samples were also analyzed for gapdh to exclude false-positive results.

[2] = test system: ESC-derived cardiac spheroids (Hcn4-GFP; Tbx1-Cre; Ai9); assay: heart field specification: Hcn4-GFP+ and Tbx1-Cre, RFP+ CPCs in cardiac spheroids by FACS at day 5.5; settings: for Bmp4-mediated induction of RFP+ cells (SHF) / Bmp4-mediated induction of GFP+ cells (FHF): in combination with Bmp4 (1.25 ng/ml), Noggin 100 ng/ml, dorsomorphin, K2288, DMH1 100 nM; for Bmp4-mediated induction of RFP+ cells (SHF): IWP-2 0.5 μM; for induction of GFP+ cells (FHF) / induction of RFP+ cells (SHF): increasing levels of the factor, day 5.5
Text: (§2) Next, an embryonic stem cell (ESC) line (ESCHcn4-GFP; Tbx1-Cre Ai9) was established from the mice to determine if heart field specification can be recapitulated in a PSC system. It was hypothesized that a 3D multicellular system would better resemble heart field development in vivo, as early development is a highly dynamic process that involves tissue-tissue interactions between multiple cell types. Since CPCs are specified during mid-late gastrulation 7, 8, multicellular 3D spheroids were generated with the PSCs and treated them with various concentrations of Activin A and Bmp4 to determine whether induction of the early mesoderm influences heart field specification (FIGS. 1C and 1D).
IPA utilizes an input gene list and a curated database of literature-derived pathways to infer which canonical pathways are most significant to the input data set. The analysis was focused on pathways related to ‘organism growth and development’. […] The effect of Bmp signals was evaluated during heart field specification. In order to minimize the possibility of influencing heart field cells after induction, all of the data were analyzed within 12 hs after the appearance of GFP^+/RFP^+ cells.
as §1
(§3) Mouse embryos (E7.75) were dissected using forceps under a stereomicroscope (Zeiss) and regions of interest were dissociated and harvested using TrypLE. Embryoid bodies (EBs) and cells were dissociated and harvested using TrypLE. Single-cells were analyzed for RFP/GFP expression or sorted using a SH800 Cell sorter (Sony Biotechnologies). Live cells were analyzed for RFP and GFP expression and stained with antibodies targeting for the presence of appropriate markers. […] Data was analyzed using FlowJo software.

[3] = test system: ESC-derived cardiac spheroids; assay: cardiogenesis: cTnT+ cardiomyocytes in cardiac spheroids at day 9 (flow cytometry); settings: varying/increasing concentrations; cTnT+ at day 9
Text: as §2, with “1D). After 5 days of differentiation (120 h), GFP+ and RFP+ cells started to appear in the spheroids. The spheroids were analyzed for GFP+ and RFP+ cells by fluorescent activated cell sorting (FACS) at day 5.5 (132 h). […] The double positive GFP+/RFP+ cells correlated with the total number of GFP+ and RFP+ cells (FIG. 6J) and were sporadically interspersed within the GFP+ domain (FIG. 6K).” for “1D).”
The overall effects on cardiogenesis were evaluated by analyzing the number of cardiomyocytes at day 9 (FIG. 6L).
as §1, with “After 48 h media was changed to RPMI plus B27 minus insulin. The hiPSC line used in this study was developed by Dr. Linzhao Cheng, the Johns Hopkins University, and had was generated from a de-identified patient using an approved IRB protocol.” left out
as §3, with “Embryoid bodies (EBs) and cells were dissociated and harvested using TrypLE.” left out

Molecule | topflash / Wnt activity (canonical Wnt activity) | expression of SHF markers (tbx1, fgf10) [1] | expression of FHF markers (tbx5, hcn4) [1] | Bmp4-mediated induction of RFP+ cells (SHF) [2] | Bmp4-mediated induction of GFP+ cells (FHF) [2] | effect on cardiogenesis [3] | induction of GFP+ cells (FHF) [2] | induction of RFP+ cells (SHF) [2]
CC(C)Oc1ccc(-c2cnc3c(-c4ccnc5ccccc45)cnn3c2)cc1 [DMH1, reference compound] | without significantly affecting | without significantly affecting | suppressed | without significantly affecting | suppressed |  |  | 
Cc1ccc2nc(NC(=O)CSc3nc4c(c(=O)n3-c3ccccc3)SCC4)sc2c1 [IWP-2, reference compound] |  | suppressed |  | abolished |  |  |  | 
COc1cc(-c2cc(-c3cccc(O)c3)cnc2N)cc(OC)c1OC [K2288, reference compound] | without significantly affecting | without significantly affecting | suppressed | without significantly affecting | suppressed |  |  | 
c1cc(-c2cnn3cc(-c4ccc(OCCN5CCCCC5)cc4)cnc23)ccn1 [dorsomorphin, reference compound] | no effect |  |  |  |  |  |  | 
Activin A: TGF-β protein; key ligand for Activin/TGF signaling (protein, UniProt P08476 311-426, looked up, Inhibin beta A chain) Inhibin beta A chain: GLECDGKVNICCKKQFFVSFKDIGWNDWIIAPSGYHANYCEGECPSHIAGTSGSSLSFHSTVINHYRMRGHSPFANLKSCCVPTKLRPMSMLYYDDGQNIIKKDIQNMIVEECGCS |  |  |  |  |  | modest effect; also recorded: did not have a significant effect | no apparent effect; also recorded: no overall effect | no apparent effect; also recorded: no overall effect
Wnt11: Wnt protein (noncanonical) (protein, UniProt O96014 25-354, looked up) Protein Wnt-11: IKWLALSKTPSALALNQTQHCKQLEGLVSAQVQLCRSNLELMHTVVHAAREVMKACRRAFADMRWNCSSIELAPNYLLDLERGTRESAFVYALSAAAISHAIARACTSGDLPGCSCGPVPGEPPGPGNRWGGCADNLSYGLLMGAKFSDAPMKVKKTGSQANKLMRLHNSEVGRQALRASLEMKCKCHGVSGSCSIRTCWKGLQELQDVAADLKTRYLSATKVVHRPMGTRKHLVPKDLDIRPVKDSELVYLQSSPDFCMKNEKVGSHGTQDRQCNKTSNGSDSCDLMCCGRGYNPYTDRVVERCHCKYHWCCYVTCRRCERTVERYVCK |  | overall reduction | overall reduction |  |  |  |  | 
Wnt3A: Wnt protein (canonical) (protein, UniProt P56704 19-352, looked up) Protein Wnt-3a: SYPIWWSLAVGPQYSSLGSQPILCASIPGLVPKQLRFCRNYVEIMPSVAEGIKIGIQECQHQFRGRRWNCTTVHDSLAIFGPVLDKATRESAFVHAIASAGVAFAVTRSCAEGTAAICGCSSRHQGSPGKGWKWGGCSEDIEFGGMVSREFADARENRPDARSAMNRHNNEAGRQAIASHMHLKCKCHGLSGSCEVKTCWWSQPDFRAIGDFLKDKYDSASEMVVEKHRESRGWVETLRPRYTYFKVPTERDLVYYEASPNFCEPNPETGSFGTRDRTCNVSSHGIDGCDLLCCGRGHNARAERRREKCRCVFHWCCYVSCQECTRVYDVHTCK | further increased | further increase | reduction |  |  |  | did not affect | increased numbers
Wnt5A: Wnt protein (noncanonical) (protein, UniProt P41221 62-380, looked up) Protein Wnt-5a: IIGAQPLCSQLAGLSQGQKKLCHLYQDHMQYIGEGAKTGIKECQYQFRHRRWNCSTVDNTSVFGRVMQIGSRETAFTYAVSAAGVVNAMSRACREGELSTCGCSRAARPKDLPRDWLWGGCGDNIDYGYRFAKEFVDARERERIHAKGSYESARILMNLHNNEAGRRTVYNLADVACKCHGVSGSCSLKTCWLQLADFRKVGDALKEKYDSAAAMRLNSRGKLVQVNSRFNSPTTQDLVYIDPSPDYCVRNESTGSLGTQGRLCNKTSEGMDGCELMCCGRGYDQFKTVQTERCHCKFHWCCYVKCKKCTEIVDQFVCK |  | overall reduction | overall reduction |  |  |  |  | 
Noggin: blocks Bmps from binding their receptors (protein, UniProt Q13253 28-232, looked up) Noggin: QHYLHIRPAPSDNLPLVDLIEHPDPIFDPKEKDLNETLLRSLLGGHYDPGFMATSPPEDRPGGGGGAAGGAEDLAELDQLLRQRPSGAMPSEIKGLEFSEGLAQGKKQRLSKKLRRKLQMWLWSQTFCPVLYAWNDLGSRFWPRYVKVGSCFSKRSCSVPEGMVCKPSKSVHLTVLRWRCQRRGGQRCGWIPIQYPIISECKCSC | markedly reduced; also recorded: inhibition |  |  | abolished | abolished |  |  | 
